Measurements published in patent US20150098945A1 (Daiichi Sankyo, published 2015).

B1: anti-ROBO4 mouse monoclonal antibody MAb1 (antibody, mouse IgG1, V domains shown)
VH: EVQLVESGGGLVKPGGSLKLSCAASGFTFSTYAMSWVRQTPEKRLEWVATISNGGTYTYYPDSVKGRFTISRDNAENTLYLQMSSLRSEDTAMYFCARLIYYDYLDYWGHGTTLTVSS
VL: DAVMTQTPLSLPVSLGDQASISCRSSQSLENSNGNTYLNWYFQKPGQSPQLLIYRVSNRFSGVLDRFSGSGSGTDFTLKISRVEAEDFGVYFCLQVTHVPWTFGGGTKLEIKR
notes: Mouse IgG1 (gamma1), kappa light chain, purified from hybridoma supernatant; also called parent antibody MAb1
B2: humanized MAb1 antibody H-2140 (antibody, human IgG2, kappa, V domains shown)
VH: EVQLVESGGGLVQPGGSLRLSCAASGFTFSTYAMSWVRQAPGKRLEWVATISQGGTYTYYPDSVKGRFTISRDNAKNTLYLQMNSLRAEDTAVYYCARLIYYDYLDYWGQGTLVTVSS
VL: DIVMTQSPLSLPVTLGEPASISCRSSQSLENSNGNTYLNWYLQKPGQSPQLLIYRVSNRFSGVPDRFSGSGSGTDFTLKISRVEAEDVGVYYCLQVTHVPWTFGPGTKVDIKR
notes: Human IgG2 / kappa constant regions; also called hMAb1-H4-type heavy chain + hMAb1-L1-type light chain

Columns and labels:
[1] = target: T1, N-terminal FLAG-tagged human ROBO4 extracellular region/domain deletion variant hROBO4-210 (human, UniProt Q8WZ75 210-1007); assay: flow cytometry, HEK293 cells transfected with pCI-FLAG-hROBO4-210, anti-mouse IgG FITC; control histogram IgG (Mouse IgG2a)
T1 construct: On transfected HEK293 cells; also called pCI-FLAG-hROBO4-210; pCI-hROBO4-210
T1 sequence: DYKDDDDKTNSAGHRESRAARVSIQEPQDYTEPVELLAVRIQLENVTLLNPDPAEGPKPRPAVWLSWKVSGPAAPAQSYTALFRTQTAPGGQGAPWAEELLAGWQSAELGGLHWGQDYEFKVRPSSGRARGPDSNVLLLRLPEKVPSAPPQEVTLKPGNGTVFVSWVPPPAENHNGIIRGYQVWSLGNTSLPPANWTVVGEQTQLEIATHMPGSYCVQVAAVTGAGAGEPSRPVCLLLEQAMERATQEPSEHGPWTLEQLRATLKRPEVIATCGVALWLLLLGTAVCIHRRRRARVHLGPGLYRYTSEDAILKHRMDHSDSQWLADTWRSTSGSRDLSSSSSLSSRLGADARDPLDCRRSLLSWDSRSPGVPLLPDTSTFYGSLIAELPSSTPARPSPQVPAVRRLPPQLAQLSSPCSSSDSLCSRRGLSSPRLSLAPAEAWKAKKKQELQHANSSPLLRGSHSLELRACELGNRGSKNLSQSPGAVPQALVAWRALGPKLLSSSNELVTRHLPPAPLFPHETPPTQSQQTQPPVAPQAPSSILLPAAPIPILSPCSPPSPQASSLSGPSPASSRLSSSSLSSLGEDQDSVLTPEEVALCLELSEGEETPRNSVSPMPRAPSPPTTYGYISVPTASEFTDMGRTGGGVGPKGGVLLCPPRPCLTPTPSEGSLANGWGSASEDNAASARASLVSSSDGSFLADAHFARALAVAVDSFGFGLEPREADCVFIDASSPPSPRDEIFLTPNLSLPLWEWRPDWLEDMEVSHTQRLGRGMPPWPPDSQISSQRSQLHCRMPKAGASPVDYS
Protocol: HEK293 cells were inoculated at a concentration of 1.5×10⁶ cells/dish to a 60-mm dish (manufactured by Corning Inc.) and cultured overnight in a DMEM medium containing 10% FBS at 37° C. under 5% CO₂ conditions. […] On the next day, the expression vector-transfected cells were treated with TrypLE Express (manufactured by Life Technologies Corp.), washed with PBS containing 5% FBS, and then suspended in PBS containing 5% FBS. The obtained cell suspension was used in flow cytometry analysis.
Each cell suspension prepared in 4)-5-1 was centrifuged, and the supernatant was removed. Then, MAb1, a positive control Monoclonal ANTI-FLAG M2 antibody produced in mouse, or a negative control Mouse IgG2a was added at a concentration of 10 μg/mL to 2×10⁵ expression vector-transfected cells, and the resulting suspension was left standing at 4° C. for 1 hour. The cells were washed once with PBS containing 5% FBS. Then, Anti-Mouse IgG FITC conjugate diluted 1000-fold with PBS containing 5% FBS was added thereto, and the resulting suspension was left standing at 4° C. for 1 hour. […] Data was analyzed using Flowjo. The histogram of FITC fluorescence intensity was prepared. The antibody was determined to bind to a cell when the histogram of MAb1 was shifted to a stronger fluorescence intensity region compared with the histogram of the negative control Mouse IgG2a. […]

[2] = target: T2, N-terminal FLAG-tagged cynomolgus monkey ROBO4, cynoROBO4-1 (pCI-FLAG-cynoROBO4-1) (cynomolgus monkey, UniProt Q8WZ75 28-1007 (human entry)); assay: flow cytometry (FC500), HEK293 cells transfected with pCI-FLAG-cynoROBO4-1, antibody at 10 µg/mL, FITC goat anti-human IgG Fc; control histogram IgG (human IgG)
T2 chain: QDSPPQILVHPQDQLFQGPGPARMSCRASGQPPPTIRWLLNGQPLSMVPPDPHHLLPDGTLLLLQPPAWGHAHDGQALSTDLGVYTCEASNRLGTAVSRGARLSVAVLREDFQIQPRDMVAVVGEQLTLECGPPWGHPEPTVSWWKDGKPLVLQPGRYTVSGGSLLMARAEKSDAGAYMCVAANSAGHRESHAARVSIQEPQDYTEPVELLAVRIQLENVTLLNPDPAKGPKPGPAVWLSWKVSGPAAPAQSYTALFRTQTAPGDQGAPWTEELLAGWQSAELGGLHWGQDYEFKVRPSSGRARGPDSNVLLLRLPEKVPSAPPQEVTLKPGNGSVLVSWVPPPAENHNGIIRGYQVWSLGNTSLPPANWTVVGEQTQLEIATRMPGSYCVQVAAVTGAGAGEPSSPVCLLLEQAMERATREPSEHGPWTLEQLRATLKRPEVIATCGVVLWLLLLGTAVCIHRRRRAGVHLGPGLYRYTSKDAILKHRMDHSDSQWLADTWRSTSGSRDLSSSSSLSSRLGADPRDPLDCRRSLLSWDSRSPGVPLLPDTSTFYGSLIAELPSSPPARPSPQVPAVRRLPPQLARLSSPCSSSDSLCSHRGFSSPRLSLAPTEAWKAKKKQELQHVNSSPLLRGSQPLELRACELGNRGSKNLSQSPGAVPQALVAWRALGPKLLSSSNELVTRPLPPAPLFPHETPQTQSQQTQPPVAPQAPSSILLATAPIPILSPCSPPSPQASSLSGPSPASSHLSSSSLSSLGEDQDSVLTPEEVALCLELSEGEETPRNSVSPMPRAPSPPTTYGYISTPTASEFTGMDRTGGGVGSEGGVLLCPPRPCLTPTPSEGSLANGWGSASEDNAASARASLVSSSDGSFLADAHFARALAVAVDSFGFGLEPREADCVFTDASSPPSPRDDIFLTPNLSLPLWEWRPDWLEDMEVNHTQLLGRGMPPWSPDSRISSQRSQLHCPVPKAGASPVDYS

Binder	binding result [1]	binding result [2]
B1	no binding (tested: 10 µg/mL)	–
B2	–	binds
